Reference: patent publication US20250282885A1 (VST BIO, published 2025)

How the values were obtained:
[1] = target: human Sdc2 on Human Umbilical Vein Endothelial Cells (HUVEC) (human, UniProt P34741 19-201); assay: cell-based or functional assay
[2] = target: T1, human Sdc2 (human, UniProt P34741 19-144, limits assumed); assay: Kd (human Sdc2), summary table of the mAbs
T1 construct: Antigen of the Octet tandem binning, loaded on biosensors at 100 nM; also called huSdc2; hSdc2

[3] = target: T1, human Sdc2; assay: Octet tandem binning; saturating Ab m2 19838-8G17-A
[4] = target: T1, human Sdc2; assay: Octet tandem binning; saturating Ab f12 19838-6-N03-A
[5] = target: T1, human Sdc2; assay: Octet tandem binning; saturating Ab m1 19838-20H19-AB
[6] = target: T1, human Sdc2; assay: Octet tandem binning; saturating Ab f10 19838-10-I12-A
[7] = target: T1, human Sdc2; assay: Octet tandem binning; saturating Ab f11 19838-20-H19-A
[8] = target: T1, human Sdc2; assay: Octet tandem binning; saturating Ab f4 19844-R3-P3-C11
How it was run: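 Octet sensors bearing 100 nM human Sdc2 got a 240 s saturating-antibody dip at 25 μg/ml and then a 180 s competitor dip at 5 μg/ml. Signal ratios are relative to buffer in place of the saturating step.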

[9] = target: T1, human Sdc2; assay: Octet tandem binning; saturating Ab f7 19844-R3-P3-A12
[10] = target: T1, human Sdc2; assay: Octet tandem binning; saturating Ab m7 19844-R3-P1-E07
[11] = target: T1, human Sdc2; assay: Octet tandem binning; saturating Ab f5 19844-R4M-P3-E06
[12] = target: T1, human Sdc2; assay: Octet tandem binning; saturating Ab f8 19844-R4M-P2-C02
[13] = target: T1, human Sdc2; assay: Octet tandem binning; Buffer in place of a saturating Ab
[14] = target: T1, human Sdc2; assay: Octet BLI, HIS1K sensor loaded with huSdc2, antibody as sample; Full R2 0.9668
Experimental: In order to characterize the binding affinity and in vivo/in vitro functional ability of the twelve clones generated by the previous studies and disclosed in Table 1, a series of assays were performed on each clone. These assays measured the affinity of each antibody clone for human, pig, and mouse Sdc2 using an Octet® binding assay system. Additionally, the functional ability of each clone to inhibit VEGFA-driven permeability (see Santiago, et al. (2021) J Am Heart Assoc. 10(18):e020521) was assessed in two therapeutic settings: a “prevention” study in which three concentrations of antibody (5 μg/ml, 10 μg/ml, 15 μg/ml, 20 μg/ml, and/or 40 μg/ml depending on the study) were pre-incubated for an hour before administration of 100 ng/ml of VEGFA, and a “treatment” study in which 3 hours of pre-treatment with 100 ng/ml VEGFA were followed by treatment with antibody at 20 μg/ml or 40 μg/ml. Results are shown for 8-G17 in FIG. 8 and FIG. 9, 20-H19-AB in FIG. 10 and FIG. 11 (FIG. 12 for monkey ECs), R3-P3-C11 in FIG. 13 and FIG. 14, R4M-P3-E06 in FIG. 15 and FIG. 16, R3-P3-E09 in FIG. 17 and FIG. 18, R3-P1-C02 in FIG. 19 and FIG. 20, R3-P3-A12 in FIG. 21 and FIG. 22, R4M-P3-A12 in FIG. 23 and FIG. 24, and R4M-P1-A10 in FIG. 25 and FIG. 26.

[15] = target: T2, pig Sdc2 (pig, UniProt F1S0L5 19-145); assay: Octet BLI, HIS1K sensor loaded with pigSdc2, antibody as sample; Full R2 0.9799
T2 construct: also called pSdc2

[16] = target: T1, human Sdc2; assay: Octet tandem binning; saturating Ab m6 19838-20H19-AA (marked non-binding ligand)
[17] = target: T1, human Sdc2; assay: Octet tandem binning; saturating Ab m3 19844-R3-P1-C02 (row boxed, self-self >0.09)

T1 sequence (P34741 19-144 limits assumed): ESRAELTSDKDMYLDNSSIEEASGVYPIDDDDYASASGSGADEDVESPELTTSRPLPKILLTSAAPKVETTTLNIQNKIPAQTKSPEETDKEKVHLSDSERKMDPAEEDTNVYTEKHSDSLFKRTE
Chain of human Sdc2 on Human Umbilical Vein Endothelial Cells (HUVEC) (P34741 19-201 limits assumed): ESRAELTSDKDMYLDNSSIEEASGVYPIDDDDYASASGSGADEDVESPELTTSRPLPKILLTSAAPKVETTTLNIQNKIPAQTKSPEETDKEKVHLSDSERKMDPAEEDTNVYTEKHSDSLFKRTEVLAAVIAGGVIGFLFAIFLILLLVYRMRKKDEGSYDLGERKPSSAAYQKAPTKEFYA

B1: R4M-P3-A12 (antibody, human IgG1, kappa, V domains shown)
VH: EVQLVESGGGVVQPGGSLRLSCAASGFTFSDHYMSWIRQAPGKGLEWVSYLSGSGTSIYYADSVKGRFTISRDNAKKSLYLQMNSLRAEDTAVYYCARVGPAAGNAFDIWGQGTMVTVSS
VL: QSVLTQPPSASGTPGQRVTISCSGSSSNIGSNYVYWYQQLPGTAPKLLIYRNNQRPSGVPDRFSGSKSGTSASLAITGLQAEDEADYYCQSYDSSLSGVVFGGGTKLTVLR
% Inhibition of VEGFA-induced permeability at 24hrs (20ug/ml) [1]: 60% | Kd [2]: 14 nM | raw competing-Ab binding signal [3]: 0.103 | raw competing-Ab binding signal [4]: 0.136 | raw competing-Ab binding signal [5]: 0.153 | raw competing-Ab binding signal [6]: 0.152 | raw competing-Ab binding signal [7]: 0.165 | raw competing-Ab binding signal [8]: -0.0875 | raw competing-Ab binding signal [9]: -0.0178 | raw competing-Ab binding signal [10]: 0.132 | raw competing-Ab binding signal [11]: 0.0642 | raw competing-Ab binding signal [12]: 0.0077 | raw competing-Ab binding signal [13]: 0.0926 | Kd [14]: 14.4 nM | koff [14]: 0.067 s⁻¹ | kon [14]: 4.65e+06 M⁻¹ s⁻¹ | Kd [15]: 15 nM | koff [15]: 0.0419 s⁻¹ | kon [15]: 2.8e+06 M⁻¹ s⁻¹ | raw competing-Ab binding signal [16]: 0.165 | raw competing-Ab binding signal [17]: 0.0422
